From article PMC3668577, “Structure of diaminohydroxyphosphoribosylaminopyrimidine deaminase/5-amino-6-(5-phosphoribosylamino)uracil reductase from Acinetobacter baumannii” (Acta Crystallographica Section F: Structural Biology and …, 2013) come the findings set out here.

For test [1], the target named is Acinetobacter baumannii diaminohydroxyphosphoribosylaminopyrimidine deaminase/5-amino-6-(5-phosphoribosylamino)uracil reductase (RibD) (Acinetobacter baumannii (strain ATCC 19606)). Kind of test: crystal structure; form I (apo, C222(1), 2.2 A, two subunits in the asymmetric unit related by a noncrystallographic twofold) and form II (grown with 5 mM GMP, P4(3)2(1)2, 2.0 A, same dimer generated by a crystallographic twofold); crystals grown at 293 K.

Test [2] has the same target. Briefly: SEC; Superdex 200 26/60, 50 mM Tris-HCl, 250 mM NaCl pH 7.5; both Ni2+ column peaks ran as homogeneous samples of approximate mass 58 kDa (tagged subunit 42 038 Da). A general note: SEC sorts molecules by how far they enter the pores of the column.
For another test, the target named is T1, AbRibD (Acinetobacter baumannii, UniProt D0CB74).
T1 construct: gene ribD; full length, 362 residues untagged (386 with tag); N-terminal His6-TEV tag (24 extra residues) kept; E. coli BL21(DE3); homodimer; subunit 42038 Da tagged
T1 sequence (D0CB74 1-361): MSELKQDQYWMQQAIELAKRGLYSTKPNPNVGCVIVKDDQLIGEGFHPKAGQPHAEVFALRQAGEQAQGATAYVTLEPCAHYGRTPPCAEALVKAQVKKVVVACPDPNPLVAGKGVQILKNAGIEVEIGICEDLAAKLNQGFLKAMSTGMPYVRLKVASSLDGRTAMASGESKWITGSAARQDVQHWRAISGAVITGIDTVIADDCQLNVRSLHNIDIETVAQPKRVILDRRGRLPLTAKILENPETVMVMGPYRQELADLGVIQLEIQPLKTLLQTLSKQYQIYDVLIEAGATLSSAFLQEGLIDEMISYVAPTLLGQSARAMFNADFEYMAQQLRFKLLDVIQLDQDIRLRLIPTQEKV
Briefly: X-ray crystallography (cocrystallization), […] A. As to conditions: 5 mM GMP; crystals at pH 5, 293 K; NADPH-binding site of reductase domain (adenine pocket); second site on surface at occupancy 0.5; authors judge binding not biologically relevant.

Consider “Acinetobacter baumannii diaminohydroxyphosphoribosylaminopyrimidine deaminase/5-amino-6-(5-phosphoribosylamino)uracil reductase (RibD) (enzyme)”, for which the stoichiometry N in test [1] and in test [2] was 2 each time.

With `Nc1nc2c(ncn2[C@@H]2O[C@H](COP(=O)(O)O)[C@@H](O)[C@H]2O)c(=O)[nH]1` [GMP], the “X-ray crystallography (cocrystallization), 1.99 A” value at AbRibD is given as “a GMP molecule was observed in the NADPH-binding site of the reductase domain”.

One may read the stoichiometry N as a count of units in the complex or per binding partner.
